According to IntAct's records for PubMed 26237645:

B1: Fumarate hydratase, mitochondrial (Homo sapiens), P07954 (parent)
chain: MYRALRLLARSRPLVRAPAAALASAPGLGGAAVPSFWPPNAARMASQNSFRIEYDTFGELKVPNDKYYGAQTVRSTMNFKIGGVTERMPTPVIKAFGILKRAAAEVNQDYGLDPKIANAIMKAADEVAEGKLNDHFPLVVWQTGSGTQTNMNVNEVISNRAIEMLGGELGSKIPVHPNDHVNKSQSSNDTFPTAMHIAAAIEVHEVLLPGLQKLHDALDAKSKEFAQIIKIGRTHTQDAVPLTLGQEFSGYVQQVKYAMTRIKAAMPRIYELAAGGTAVGTGLNTRIGFAEKVAAKVAALTGLPFVTAPNKFEALAAHDALVELSGAMNTTACSLMKIANDIRFLGSGPRSGLGELILPENEPGSSIMPGKVNPTQCEAMTMVAAQVMGNHVAVTVGGSNGHFELNVFKPMMIKNVLHSARLLGDASVSFTENCVVGIQANTERINKLMNESLMLVTALNPHIGYDKAAKIAKTAHKNGSTLKETAIELGYLTAEQFDEWVKPKDMLGPK

Variants of: B1
Conditions: with h2az_human H2AZ1, P0C0S5
h2az_human H2AZ1, P0C0S5, sequence (P0C0S5 whole entry): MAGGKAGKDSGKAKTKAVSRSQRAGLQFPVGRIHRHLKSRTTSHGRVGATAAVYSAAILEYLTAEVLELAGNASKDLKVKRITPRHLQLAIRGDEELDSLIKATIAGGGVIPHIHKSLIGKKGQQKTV

effect of a mutation on the interaction | Variant
disrupting interaction strength | MYRALRLLARSRPLVRAPAAALASAPGLGGAAVPSFWPPNAARMASQNSFRIEYDTFGELKVPNDKYYGAQTVRSTMNFKIGGVTERMPTPVIKAFGILKRAAAEVNQDYGLDPKIANAIMKAADEVAEGKLNDHFPLVVWQTGSGTQTNMNVNEVISNRAIEMLGGELGSKIPVHPNDHVNKSQSSNDTFPTAMHIAAAIEVHEVLLPGLQKLHDALDAKSKEFAQIIKIGRTHAQDAVPLTLGQEFSGYVQQVKYAMTRIKAAMPRIYELAAGGTAVGTGLNTRIGFAEKVAAKVAALTGLPFVTAPNKFEALAAHDALVELSGAMNTTACSLMKIANDIRFLGSGPRSGLGELILPENEPGSSIMPGKVNPTQCEAMTMVAAQVMGNHVAVTVGGSNGHFELNVFKPMMIKNVLHSARLLGDASVSFTENCVVGIQANTERINKLMNESLMLVTALNPHIGYDKAAKIAKTAHKNGSTLKETAIELGYLTAEQFDEWVKPKDMLGPK [T236A]
increasing interaction strength | MYRALRLLARSRPLVRAPAAALASAPGLGGAAVPSFWPPNAARMASQNSFRIEYDTFGELKVPNDKYYGAQTVRSTMNFKIGGVTERMPTPVIKAFGILKRAAAEVNQDYGLDPKIANAIMKAADEVAEGKLNDHFPLVVWQTGSGTQTNMNVNEVISNRAIEMLGGELGSKIPVHPNDHVNKSQSSNDTFPTAMHIAAAIEVHEVLLPGLQKLHDALDAKSKEFAQIIKIGRTHDQDAVPLTLGQEFSGYVQQVKYAMTRIKAAMPRIYELAAGGTAVGTGLNTRIGFAEKVAAKVAALTGLPFVTAPNKFEALAAHDALVELSGAMNTTACSLMKIANDIRFLGSGPRSGLGELILPENEPGSSIMPGKVNPTQCEAMTMVAAQVMGNHVAVTVGGSNGHFELNVFKPMMIKNVLHSARLLGDASVSFTENCVVGIQANTERINKLMNESLMLVTALNPHIGYDKAAKIAKTAHKNGSTLKETAIELGYLTAEQFDEWVKPKDMLGPK [T236D]

Variants of: B1
Conditions: with h2az_human H2AZ1, P0C0S5
Remark: another data set of the same source

effect of a mutation on the interaction | Variant
decreasing interaction strength | MYRALRLLARSRPLVRAPAAALASAPGLGGAAVPSFWPPNAARMASQNSFRIEYDTFGELKVPNDKYYGAQTVRSTMNFKIGGVTERMPTPVIKAFGILKRAAAEVNQDYGLDPKIANAIMKAADEVAEGKLNDHFPLVVWQTGSGTQTNMNVNEVISNRAIEMLGGELGSKIPVHPNDHVNKSQSSNDTFPTAMHIAAAIEVHEVLLPGLQKLHDALDAKSKEFAQIIKIGRTHAQDAVPLTLGQEFSGYVQQVKYAMTRIKAAMPRIYELAAGGTAVGTGLNTRIGFAEKVAAKVAALTGLPFVTAPNKFEALAAHDALVELSGAMNTTACSLMKIANDIRFLGSGPRSGLGELILPENEPGSSIMPGKVNPTQCEAMTMVAAQVMGNHVAVTVGGSNGHFELNVFKPMMIKNVLHSARLLGDASVSFTENCVVGIQANTERINKLMNESLMLVTALNPHIGYDKAAKIAKTAHKNGSTLKETAIELGYLTAEQFDEWVKPKDMLGPK [T236A]
